Reference: publication PMC4694770, “Gene Regulatory Mechanisms Underlying the Spatial and Temporal Regulation of Target-Dependent Gene Expression in Drosophila Neurons”

Key:
[1] = biological target: T1, GST-MH1-Mad (GST-MadN) (Drosophila melanogaster, UniProt P42003 26-150); assay: EMSA; 1 ug poly(dI-dC), 5 mM MgCl2; out-competed by unlabeled WT; Ap: 20 mM HEPES pH 7.8, 50 mM KCl, 10% glycerol, 0.25 mM EDTA, 0.1 mg/ml BSA, 1 mM DTT, 21 C; Mad: 25 mM Tris pH 7.5, 35 mM KCl, 80 mM NaCl, 5 mM MgCl2, 3.5 mM; settings: protein: recombinant; tags: GST (pGEX6p1); label: IRDye 700
T1 sequence (P42003 26-150): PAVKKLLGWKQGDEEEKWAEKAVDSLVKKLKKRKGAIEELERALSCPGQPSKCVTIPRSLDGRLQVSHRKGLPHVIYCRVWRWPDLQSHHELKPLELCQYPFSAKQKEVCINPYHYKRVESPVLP

[2] = biological target: T1, GST-MH1-Mad (GST-MadN); assay: competition; vs labeled BMP-RE; Ap: 20 mM HEPES pH 7.8, 50 mM KCl, 10% glycerol, 0.25 mM EDTA, 0.1 mg/ml BSA, 1 mM DTT, 21 C; Mad: 25 mM Tris pH 7.5, 35 mM KCl, 80 mM NaCl, 5 mM MgCl2, 3.5 mM; settings: protein: recombinant; tags: GST (pGEX6p1); label: unlabeled
[3] = biological target: T2, His::Svp (Drosophila melanogaster, UniProt P16375 1-543); assay: EMSA; with or without poly(dI-dC); out-competed by WT at 20:1; Ap: 20 mM HEPES pH 7.8, 50 mM KCl, 10% glycerol, 0.25 mM EDTA, 0.1 mg/ml BSA, 1 mM DTT, 21 C; Mad: 25 mM Tris pH 7.5, 35 mM KCl, 80 mM NaCl, 5 mM MgCl2, 3.5 mM; settings: protein: recombinant; tags: N-term His; GST removed with PreScission protease; chain copies: 2; label: IRDye 700
T2 sequence: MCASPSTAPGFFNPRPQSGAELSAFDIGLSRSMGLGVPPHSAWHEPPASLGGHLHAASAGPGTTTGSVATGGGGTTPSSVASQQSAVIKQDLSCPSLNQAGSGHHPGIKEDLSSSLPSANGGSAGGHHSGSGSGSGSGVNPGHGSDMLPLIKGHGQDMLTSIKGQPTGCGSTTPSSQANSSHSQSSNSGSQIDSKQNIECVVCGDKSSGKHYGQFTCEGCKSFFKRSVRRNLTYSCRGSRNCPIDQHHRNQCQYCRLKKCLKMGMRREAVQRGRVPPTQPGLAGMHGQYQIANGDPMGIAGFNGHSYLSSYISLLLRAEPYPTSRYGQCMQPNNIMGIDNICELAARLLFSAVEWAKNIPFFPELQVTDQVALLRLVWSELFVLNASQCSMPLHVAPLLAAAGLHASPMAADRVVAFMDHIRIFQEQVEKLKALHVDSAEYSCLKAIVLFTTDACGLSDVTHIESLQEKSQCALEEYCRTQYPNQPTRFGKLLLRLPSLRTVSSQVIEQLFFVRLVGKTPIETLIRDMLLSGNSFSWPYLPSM

B1: BMP-RE probe (dsDNA)
DNA 1: GCCAGAGGCGCCACAATGTATCCCGTT
DNA 2: AACGGGATACATTGTGGCGCCTCTGGC
- binding result [1]: binds

B2: MutMad BMP-RE competitor (dsDNA)
DNA 1: GCCAGATAGTAGACAATGTATCCCGTT
DNA 2: AACGGGATACATTGTCTACTATCTGGC
- binding result [2]: no binding

B3: DR1 Svp probe (dsDNA)
DNA 1: AGCTCTCAGGTCAGAGGTCAGAGAGCT
DNA 2: AGCTCTCTGACCTCTGACCTGAGAGCT
- binding result [3]: binds
